The text below walks through data of the nanobody polyreactivity screen of Harvey et al. (2022).

A short description of the data set: yeast display, Sf9 membrane polyspecificity reagent, FACS + sequencing; frameworks hold sequencing errors. The method, boiled down:
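A synthetic nanobody library was expressed on Saccharomyces cerevisiae BJ5465 by galactose induction for 36–48 hours. The library was stained for 1 hour at 4 °C with 10% biotinylated, detergent-solubilized Sf9 membrane reagent and enriched with streptavidin microbeads before FACS. Low and high (top ~1%) gates were set on anti-HA fluorescence for expression and streptavidin fluorescence for reagent binding, and each polyreactivity label reflects the gate of origin.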
For the sequence “QVQLVESGGGLVQAGGSLRLSCAASGSIFAYYAMGWYRQAPGKERELVAAISGTGGSTNYADSVKGRFTISRDNAKNTVYLQMNSLKPEDTAVYYCAKDYSFQWRNEFNLAGEYDYWGQGTQVTVSS”, the “polyreactivity (PSR sort gate)” value is given as “low polyreactivity”.
As for “HVKLVDSGGGLVKAGGSLRLTCAASGITIYTNDMGWSRQARGKERELVAAITTNDGDTYYADSVKGRFTISRDNEKNTVYLQMNSLKPEDNAVYYCAADSGSTSEYEYWGQGTQVTVSS”, the “polyreactivity (PSR sort gate)” value is on record as “low polyreactivity”.
In the case of “QVRLLETGGGLVQAGGSLRLSCAPSGSTFTDYDMGWYRPAPGKERELVAAITSGGSTNYADSVKGSFTISRDNAKNTVYLQMNRLKPEDTAVYYCAASYWDTEPGYREYDYWGQGTLVTVSS” it was “low polyreactivity”; in that of “QVQLVESGGGLVQAGGSLRLSCAASGSTFDRNVMGWYRQAPGKERELVAAISRVSSTNYADSVKGRFTFSRDNAKNTVYLLMNSLKPEDTAVYYCAADRAGSIMNYWGQGTQVTVSS”, “low polyreactivity”.
For “QVQLEESGGGLVQAGGSLRLSCAASGRIFATNAMGWYRQAPGKERELVATITRSAGRTYYADSVKGRFTISRDNAKNTVYLHMNSLKPEDTAVYYCASSYWDTEPVYREYDYWGQGTQVTVSS” the value was “low polyreactivity”; for “QVQLVESGGGLVQAGGSLRLSCAASGRTFWGYAMGWYRQAPGKERELVATISSTGSTNYAESVKGRFTISRDNAKNTVYFQMNSLKPEATAVYYCNAKRHVYRGWYQRYDYWGQGTQVTVSS”, “high polyreactivity”; for “QVQLVASGGGLVHAGGSLRLSCAASGRIFTHNAMGWSRQAPGKEREMVAAITSGGRTTYADSVKGRFTISRDNAKNTVYFQMNSLKPEDTAVYYCNADTGLGSLDFDKRDYWGQGTQVTVSS”, “low polyreactivity”.
In the case of “QVKRVESGGGLVHAGGSLRLSCPASGRTVAKYAMGGYRQEPGKARELVAAITSSGGITYYAESVQGRYTISRDNAKNIVYLQMNSLKREDTAFYYCAVKTFQVGTFRRYYYWGQGTQVTVSS” it was “high polyreactivity”.
In the case of “QVQLVESCGGLVQAGGSLRLSCAASGRTFRDNAMGWYRQAPGKERELVAAIDIDSSTYYADSVEGRFTISRDNAKNTVYLQMNSLKPEDTAVYYCAAESYHDGKGFPDYEYWGQGTQVTVSS”, the “polyreactivity (PSR sort gate)” value is reported as “low polyreactivity”.
For “QVQLVESGGGLVQAGGSLRLSCAASGSTFPSYAMGWYRQAPGKERELVAAINSGGGTNYADSVKGRFTISRDNAKNTVYLQINSLKPEDTAVFYCAKSRYDYTKTEGVYWGQGTQVTVSS” the value was “low polyreactivity”; for “QVQLVESGGGLVQAGGSLRLSCAASGFIFGPNAMGWYRQAPGKERELVAAIRWSGSRTYYADSVKGRFTISRDNAKNTVYLQMNSLKPEDTAVYYCATTYGYYTYDYWGQGTQVTVSS”, “high polyreactivity”; for “QVQLVESGGGLVQAGGSLRLSCAASGGIFYGNVMGWYRQAPGKERQLVADITSVGSTYYADSVKGRFTFSRDNAKYTVYIQMNSLKPEDTAVYYCAAEPDHVAESHSGYDYWGQGTLVTVSS”, “low polyreactivity”.
“QVQIVESGGGLVQAGGSLRLSCAASGFIFYSYAMGWYRQAPGKEREFVASISGRTGSTYYADSVKVRFTISRDNAKNTVYLQMNSLKPEDTAVYYCNARIVHSFRYDYWGQGTQVTVSS”: the “polyreactivity (PSR sort gate)” value is given as “low polyreactivity”.
For “QVQLLESGGGLVQAGGSLRLICAASGSTFVVYAMGWYRQAPGKERELVAAIRSGGGTYYADSVKGRFTISRDNAKNTVYLQMNSQKPEDTAVYYCNADSDPGPAYVYRDLYDYWGQGTQVTLSS”, the “polyreactivity (PSR sort gate)” value was “low polyreactivity”.
As for “QVQLVESGGGLVQAGGSLRLSCAASGLTFAGYAMGWYRQAPGKERELVAAITYSTGRTYYADSVKGRFTISRDNAKTTVYFQMNSLKPEDTAVYYCAALLRGQDRTMDYWGQGTQVTVSS”, the “polyreactivity (PSR sort gate)” value is listed as “high polyreactivity”.
On to “QVQLVESGGGLVQAGGSLRLSCAASGGTFGVNAMGWYRQAPGKERELVAAISSSGGRTYYADSVKGRFTISRDNAKNTVYLQVNSLKPEDTAVYYCAARNYFWGQGTQVTVSS”, for which the “polyreactivity (PSR sort gate)” value is recorded as “low polyreactivity”.
